Results taken from patent US20240002497A1 (Merck Sharp & Dohme, published 2024).
Numbering of substitutions follows the chain as printed. Numbers in names are those of the source. Values belong to the binder of their own block, whether it stands above or below them.

Experiments:
Assay in all cases: binding FACS, CHO FlpIn cells
huNav1.7α + β1-β2-β3 = molecular target: T1, huNav1.7α + β1-β2-β3 (human, UniProt Q15858 1-1988; A5A6L6 19-218; O60939 30-215; Q2KI11 23-215)
T1 construct: Cell line (CHO FlpIn, HEK FlpIn, transient HEK293T) is named under assay; also called huNav1.7-beta1-beta2-beta3; human Nav1.7α with Navβ1, Navβ2 and Navβ3
Procedure: (§1) Binding of the ISVDs to cell-expressed Nav1.7α was detected via murine anti-Flag (Sigma, catalog #F1804). Briefly, cells were resuspended in FACS buffer (PBS, 10% FBS, NaN₃) and transferred to a 96-well V-bottom plate at 1×10^5 cells/well. Purified FLAG3-tagged ISVD was diluted in FACS buffer and added to the cells for 30 minutes at 4° C. […] Prior to the read-out, the samples were resuspended in 1 μg/mL propidium iodide (Sigma, catalog #P4170) to exclude dead cells. Between each step, the cells were centrifuged for 5 minutes at 200 grams and washed with 100 μL/well FACS buffer.

rhNav1.7α + β1-β2-β3 = molecular target: T2, rhNav1.7α + β1-β2-β3 (rhesus monkey)
T2 construct: also called rhNav1.7-beta1-beta2-beta3; rhesus Nav1.7α
Procedure: as §1

[1] = molecular target: T3, huNav1.7α + β1-β2-β3 (human Nav1.7α co-expressed with human Navβ1, Navβ2 and Navβ3 on cells) (human)
T3 construct: also called huNav1.7-beta1-beta2-beta3; CHO FlpIn huNav1.7α + β1-β2-β3
Procedure: as §1

B5: F010302353 (VHH)
VHH: EVQLVESGGGVVQPGGSLRLSCAASHRQFIRDVFTGWYRRAPGKQRELVARIYEGGNTQYADSVKGRFTISRDNAKKTVYLQMNSLRPEDTALYYCLFSGTISTGREYRSGDYWGQGTLVTVSS
Bmax (huNav1.7α + β1-β2-β3): 100% | EC50 (huNav1.7α + β1-β2-β3): 4.2 nM | Bmax (rhNav1.7α + β1-β2-β3): 93% | EC50 (rhNav1.7α + β1-β2-β3): 7.9 nM

B8: F010302347 (VHH)
VHH: B5 VHH with Q28A, R40Q, V64A
Bmax (huNav1.7α + β1-β2-β3): 100% | EC50 (huNav1.7α + β1-β2-β3): 4.6 nM | Bmax (rhNav1.7α + β1-β2-β3): 100% | EC50 (rhNav1.7α + β1-β2-β3): 9.6 nM

B9: F010302343 (VHH)
VHH: B5 VHH with H26S, R40Q, G55S, V64A
Bmax (huNav1.7α + β1-β2-β3): 100% | EC50 (huNav1.7α + β1-β2-β3): 6.4 nM | Bmax (rhNav1.7α + β1-β2-β3): 84% | EC50 (rhNav1.7α + β1-β2-β3): 18 nM

B10: F010302350 (VHH)
VHH: B5 VHH with H26S, E54N, G55E
Bmax (huNav1.7α + β1-β2-β3): 100% | EC50 (huNav1.7α + β1-β2-β3): 3.5 nM | Bmax (rhNav1.7α + β1-β2-β3): 46% | EC50 (rhNav1.7α + β1-β2-β3): 15 nM

B11: F010302352 (VHH)
VHH: B5 VHH with E54N, G55E
Bmax (huNav1.7α + β1-β2-β3): 100% | EC50 (huNav1.7α + β1-β2-β3): 3.6 nM | Bmax (rhNav1.7α + β1-β2-β3): 60% | EC50 (rhNav1.7α + β1-β2-β3): 11 nM

B12: F010302351 (VHH)
VHH: B5 VHH with H26S, G55S
Bmax (huNav1.7α + β1-β2-β3): 100% | EC50 (huNav1.7α + β1-β2-β3): 5.6 nM | Bmax (rhNav1.7α + β1-β2-β3): 72% | EC50 (rhNav1.7α + β1-β2-β3): 15 nM

B13: F010302346 (VHH)
VHH: B5 VHH with Q28A, R40Q, G55S, V64A
Bmax (huNav1.7α + β1-β2-β3): 100% | EC50 (huNav1.7α + β1-β2-β3): 5 nM | Bmax (rhNav1.7α + β1-β2-β3): 99% | EC50 (rhNav1.7α + β1-β2-β3): 12 nM

B15: F010302316 (VHH)
VHH: EVQLVESGGGVVQPGGSLRLSCAASGPVFNINRMAWYRQAPGKQRELVAYVTPTGDISYADSVKGRFTISRDASKRVYLQMNSLRPEDTALYYCRALLQPRSYSITRTYWGQGTLVTVSS
notes: also called F0103387G04(L11V, A12V, K33R, R39Q, S50Y, S56D, T60A, G73A, W78V, S79Y, T83R, V89L, N93R, D99R, N100cI)-FLAG3-HIS6
Bmax [1]: 91% | EC50 [1]: 8.2 nM

B16: F010302319 (VHH)
VHH: B15 VHH with R101D, S102R
notes: also called F0103387G04(L11V, A12V, K33R, R39Q, S50Y, S56D, T60A, G73A, W78V, S79Y, T83R, V89L, N93R, S100R, N100cI)-FLAG3-HIS6
Bmax [1]: 88% | EC50 [1]: 15 nM

B17: F010302318 (VHH)
VHH: B15 VHH with A73G, R101D, S102R
notes: also called F0103387G04(L11V, A12V, K33R, R39Q, S50Y, S56D, T60A, W78V, S79Y, T83R, V89L, N93R, S100R, N100cI)
Bmax [1]: 89% | EC50 [1]: 11 nM

B18: F010302321 (VHH)
VHH: B15 VHH with A73R, R101D, S102R
notes: also called F0103387G04(L11V, A12V, K33R, R39Q, S50Y, S56D, T60A, G73R, W78V, S79Y, T83R, V89L, N93R, S100R, N100cI)-FLAG3-HIS6
Bmax [1]: 91% | EC50 [1]: 7.9 nM

B19: F010302324 (VHH)
VHH: B15 VHH with A73R, S102R
notes: also called F0103387G04(L11V, A12V, K33R, R39Q, S50Y, S56D, T60A, G73R, W78V, S79Y, T83R, V89L, N93R, D99R, S100R, N100cI)
Bmax [1]: 42% | EC50 [1]: 29 nM

Now from value to binder:

Bmax (huNav1.7α + β1-β2-β3): 100% | EC50 (huNav1.7α + β1-β2-β3): 3.5 nM | Bmax (rhNav1.7α + β1-β2-β3): 97% | EC50 (rhNav1.7α + β1-β2-β3): 6.8 nM
B1: F010302355 (VHH)
VHH: B5 VHH with Q28A

Bmax (huNav1.7α + β1-β2-β3): 100% | EC50 (huNav1.7α + β1-β2-β3): 4.8 nM | Bmax (rhNav1.7α + β1-β2-β3): 92% | EC50 (rhNav1.7α + β1-β2-β3): 11 nM
B2: F010302361 (VHH)
VHH: B5 VHH with R40Q

Bmax (huNav1.7α + β1-β2-β3): 100% | EC50 (huNav1.7α + β1-β2-β3): 5.3 nM | Bmax (rhNav1.7α + β1-β2-β3): 81% | EC50 (rhNav1.7α + β1-β2-β3): 12 nM
B3: F010302356 (VHH)
VHH: B5 VHH with Q28A, V33L, G55S, Q59N

Bmax (huNav1.7α + β1-β2-β3): 100% | EC50 (huNav1.7α + β1-β2-β3): 3.9 nM | binding result (rhNav1.7α + β1-β2-β3): no binding
B4: F010302368 (VHH)
VHH: B5 VHH with H26S, Q28A, R40Q, E54N, Q59N

Bmax (huNav1.7α + β1-β2-β3): 100% | EC50 (huNav1.7α + β1-β2-β3): 5.3 nM | binding result (rhNav1.7α + β1-β2-β3): no binding
B6: F010302357 (VHH)
VHH: B5 VHH with H26S, R40Q, E54N, G55E, Q59N

Bmax (huNav1.7α + β1-β2-β3): 100% | EC50 (huNav1.7α + β1-β2-β3): 3.7 nM | binding result (rhNav1.7α + β1-β2-β3): no binding
B7: F010302366 (VHH)
VHH: B5 VHH with H26S, Q28A, R40Q, E54N, Q59N, V64A

Bmax (huNav1.7α + β1-β2-β3): 100% | EC50 (huNav1.7α + β1-β2-β3): 4.5 nM | Bmax (rhNav1.7α + β1-β2-β3): 37% | EC50 (rhNav1.7α + β1-β2-β3): 37 nM
B14: F010302358 (VHH)
VHH: B5 VHH with H26S, R40Q, E54N, G55E
